Test results taken from the DeepSol protein solubility set.

assay: soluble on expression in E. coli; label from the status in PepcDB or PDB records

Sequence	soluble on expression in E. coli
MTNPLLTPFELPPFSKILPEHVVPAVTKALNDCRENVERVVAQGAPYTWENLCQPLAEVDDVLGRIFSPVSHLNSVKNSPELREAYEQTLPLLSEYSTWVGQHEGLYKAYRDLRDGDHYATLNTAQKKAVDNALRDFELSGIGLPKEKQQRYGEIATRLSELGNQYSNNVLDATMGWTKLVTDEAELAGMPESALAAAKAQAEAKELEGYLLTLDIPSYLPVMTYCDNQALREEMYRAYSTRASDQGPNAGKWDNSKVMEEILALRHELAQLLGFENYAFKSLATKMAENPQQVLDFLTDLAKRARPQGEKELAQLRAFAKAEFGVDELQPWDIAYYSEKQKQHLYSISDEQLRPYFPENKAVNGLFEVVKRIYGITAKERKDVDVWHPDVRFFELYDENNELRGSFYLDLYARENKRGGAWMDDCVGQMRKADGSLQKPVAYLTCNFNRPVNGKPALFTHDEVITLFHEFGHGLHHMLTRIETAGVSGISGVPWDAVELPSQFMENWCWEPEALAFISGHYETGEPLPKELLDKMLAAKNYQAALFILRQLEFGLFDFRLHAEFRPDQGAKILETLAEIKKLVAVVPSPSWGRFPHAFSHIFAGGYAAGYYSYLWADVLAADAFSRFEEEGIFNRETGQSFLDNILSRGGSEEPMDLFKRFRGREPQLDAMLEHYGIKG	soluble
MTNPNIPDDLLAKIAKKMADKCWWYLGPMLKSGPRGRDIVYRPDVLKNANIFSMCDDPDDFYAAGHDPNDINSEGRYRPFFKWCLQAGNPTAIYHEGLRLVTHESDIQGAILHLERIAPRNAAATLACAILYICAGNAHMGGVYLRLFGSNHYALESEDARDI	soluble
MTNQPTEIAIVGGGMVGGALALGLAQHGFSVTVIEHAEPAPFVADSQPDVRISAISAASVSLLKGLGVWDAVQAMRCHPYRRLETWEWETAHVVFDAAELKLPLLGYMVENTVLQQALWQALEAHPKVTLRVPTSLIALHRDNDLQELELKGGETIRAKLVIGADGANSQVRQMAGIGVHAWQYAQSCMLISVQCENDPGDSTWQQFTPDGPRAFLPLFDNWASLVWYDSPTRIRQLQNMNMAQLQAEIAKHFPSRLGYVTPLAAGAFPLTRRHALQYVQPGLALVGDAAHTIHPLAGQGVNLGYRDVDALIDVLVNARSYGEAWASYPVLKRYQMRRMADNFIMQSGMDLFYAGFSNNLPPLRFVRNLGLMAAERAGVLKRQALKYALGLLEHHHHHH	not soluble
MTNSNNRQSEYPVDPLFLDRWSPRAFDGSPMPKEHLLTILDAAHWAPSASNHQPWRFVYAHKDSEDWPLFVELLMEGNQKWAKNASVLLFVISRDHTISHEGEKKPSATHSFDAGAAWFSLAMQAHLLGYHAHGMGGIFKDRIVEKLDIPDGFKVEAGVAIGTLTDKSILPDDLAEREVPSKRVPLADVAFEGRFTGKAD	soluble
MTPGVDGVNKTMLQARLAVELQILRDELLSGHYQPLPARRVYIPKSNGKLRPLGIPALRDRIVQRAMLMAMEPIWESDFHTLSYGFRPERSVHHAIRTVKLQLTDCGETRGRWVIEGDLSSYFDTVHHRLLMKAVRRRISDARFMTLLWKTIKAGHIDVGLFRAASEGVPQGGVISPLLSNIMLNEFDQYLHERYLSGKARKDRWYWNNSIQRGRSTAVRENWQWKPAVAYCRYADDFVLIVKGTKAQVEAIREECRGVLEGSLKLRLNMDKTKIPHVNDGFIFLGHRLIRKRSRYGEMRVVSTIPQEKARNFAASLTALLWKVRISGEILLGLEHHHHHH	soluble
MTPNGHHFRTVIYNAAAVGNLQRIKVFTINSRNDRQWIIDCFNSDQDGRYPLVIAARNGHANVVEYLLEIGADPSVRGVVEFDNENIQGTPPLWAASAAGHIEIVKLLIEKANADVNQATNTRSTPLRGACYDGHLDIVKYLLEKGADPHIPNRHGHTCLMIASYRNKVGIVEELLKTGIDVNKKTERGNTALHDAAESGNVEVVKILLKHGSVLMKDIQGVDPLMGAALSGFLDVLNVLADQMPSGIHKRDALKLLGSTLLDKKMDAMSAMNCWKQSMEVPLHADDLRLVREMETFFEPQEVYEYQREAQNIAQVELLDGNIEAQRMQALVIRERILGGAHTDVHYYLRFRGAVYCDMGQMNRCYDLWKHALELQQKHFAPLYYGTITTLQSFHETFSMSLNDFVNNHHANRNLRVRSSWVKYVFNGVCLELERAAAWTGAPLLEDTECCGKERCQHATEESEYKKLVYVAVHLVNVLERLSLPSAHIDDSDEEKEPKADVRRLMIVCHELHIPLLHHTLEERIPDSNSAELGLPKAAVLEQLLELDLDVNATDKNNDTPMHILLRAREFRKSLVRALLVRGTWLFARNRHGDVVLNVMKRMKALNHANFDDLPLGRHITLAGLVANAMRVKYPKKFVGVEEQMPLELRRFYLAH	not soluble
MTPSPEASEGPCVSKLRNEPLGALTPYVGVVDGPEVKKSKKIHGGDSAILGTYKMQSRFNRGVLLMVNIMDYPDQNRRRIGAEKDSKSLIHLFQELNFTIFPYGNVNQDQFFKLLTMVTSSSYVQNTECFVMVLMTHGNSVEGKEKVEFRDGSVVDMQKIKDHFQTAKCPYLVNKPKVLMFPFARGDEYDLGHPKNQGNLMEPVYTAQEEKWPDTQTEGIPSPSTNVPSLADTLVCYANTPGYVTHRDLDTGSWYIQKFCQVMADHAHDTDLEDILKKTSEAVGNKRTKKGSMQTGAYDNLGFNKKLYFNPGFFNE	soluble
MTQFTTELLNFLAQKQDIDEFFRSSLETAMNDLLQVELSAFLGYEPYDKAGYNTGNSRNGAYTRRFETKYGVVNLLIPRDRNGEFSPALIPSYGRRDNHLEEMVIKLYRTGVTTREISDIIERMYGHHYSPATVSNISKATQENVASFHERSLEANYTVLYLDGTYLPLRRGTVSKECIHIALGVTSYGHKAILGYDIAPNENNASWSDLLERFKGQGVQQVSLVVSDGFNGLDQLIQQAFPMAKQQRCLVHIGRNIASKVKRADRALILEQFKTIYRAINVEEAKQALDSFINEWKPHYKKVIETLESIENLLIFYEFPHQIWGSIYSTNLIESLNKEIKRQTKKKVVFPNEESLERYLVTLFSDYNFKQGQRIHKGFGQCTDTLESLFD	not soluble
MTQIIKIDPLNPEIDKIKIAADVIRNGGTVAFPTETVYGLGANAFDGNACLKIFQAKNRPVDNPLIVHIADFNQLFEVAKDIPDKVLEIAQIVWPGPLTFVLKKTERVPKEVTAGLDTVAVRMPAHPIALQLIRESGVPIAAPSANLATRPSPTKAEDVIVDLNGRVDVIIDGGHTFFGVESTIINVTVEPPVLLRPGPFTIEELKKLFGEIVIPEFAQGKKEAEIALAPGMKYKHYAPNTRLLLVENRNIFKDVVSLLSKKYKVALLIPKELSKEFEGLQQIILGSDENLYEVARNLFDSFRELDKLNVDLGIMIGFPERGIGFAIMNRARKASGFSIIKAISDVYKYVNI	soluble
MTQTPDREKALELAVAQIEKSYGKGSVMRLGDEARQPISVIPTGSIALDVALGIGGLPRGRVIEIYGPESSGKTTVALHAVANAQAAGGVAAFIDAEHALDPDYAKKLGVDTDSLLVSQPDTGEQALEIADMLIRSGALDIVVIDSVAALVPRAELEGEMGDSHVGLQARLMSQALRKMTGALNNSGTTAIFINQLRDKIGVMFGSPETTTGGKALKFYASVRMDVRRVETLKDGTNAVGNRTRVKVVKNKCLAPFKQAEFDILYGKGISREGSLIDMGVDQGLIRKSGAWFTYEGEQLGQGKENARNFLVENADVADEIEKKIKEKLGIGAVVTDDPSNDGVLPAPVDF	soluble
MTRFSGKVALVTGSSNGIGRATAVLLAQEGAKVTITGRNADRLEETRQEILKSGVPEDHVLSIATDLATEKGQDELVNSTIQKFGRLDILVNNAGAAFNDDQGRVGVDQDVSVYDRIMQINMRSVVTLTQKAKEHLVKAKGEVVNVSSIGAGPQAQPTFMYYAMSKAALDQYTRSAAIDLIQYGVRVNSVSPGAVVTGFGEAMGMPADMHEKYGHFMESRKECIPCGKMGQPIDIANIIAFLADRKLSSYIIGQSIVADGGSTLVMGMQAHNFMDLLKQ	not soluble
MTRLTLALDVMGGDFGPSVTVPAALQALNANSQLTLLLVGNPDIITPLLAKADFEQRSRLQIIPAQSVIASDARPSQAIRASRGTSMRVALELVKEGRAEACVSAGNTGALMGLAKLLLKPLEGIERPALVTVLPHQQKGKTVVLDLGANVDCDSTMLVQFAVMGAVLAEEVVGIKNPRVALLNIGEEETKGLDSIREASLMLKTVPTINYIGYLEANELLTGKTDVLVCDGFTGNVTLKTMEGVVRMFLSLLKSQGEGKKRSWWLLLLKRWLQKSLTRRFSHLNPDQYNGACLLGLRGTVIKSHGAANQRAFAVAIEQAVQAVQRQVPQRIAARLESVYPAGFEPLDDGKGVNLRAHR	not soluble
